Reference: the supplement of paper PMC12764529
± gives the half width of the 95% confidence interval.

How the values were obtained:
[1] = folding stability dG unfold from trypsin proteolysis; higher = more stable
Method: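 Folding stability of de novo designed mini-proteins (<80 aa, no Cys; designed by TrROS, TrMRF, ProteinMPNN and the joint model) was measured by cDNA display proteolysis with trypsin and chymotrypsin. Each protease was used at 11 concentrations in a threefold dilution series plus a no-protease condition. K50 was inferred by Bayesian fitting of sequencing counts, and dG unfold was derived against a sequence-predicted unfolded-state K50 (Tsuboyama et al. method). Sequences shown include variable-length N-terminal GS-type padding (SAGGSAGG...) inside a display construct carrying a PA tag. Rows were kept only if the AF2 dimer inter-PAE was >15, to exclude likely homo-oligomers.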

[2] = folding stability dG unfold (combined trypsin and chymotrypsin); higher = more stable
Method in brief: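 Mini-proteins designed to be under 80 residues and free of cysteine were carried in a PA-tagged cDNA display construct and digested with trypsin and with chymotrypsin. Each protease was applied at 11 threefold-diluted concentrations, alongside a no-protease condition, before sequencing. K50 came from Bayesian fitting of the sequencing counts, and unfolding free energy was obtained by comparing it with a sequence-predicted unfolded-state K50 and a shared folded-state K50, for each protease separately or for both together. Designs were retained only if their AlphaFold2 dimer inter-PAE exceeded 15.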

Sequence | folding stability dG unfold [1] [kcal/mol] | folding stability dG unfold [2] [kcal/mol]
SAGGSAGGSAGGRIRLPNMPPGHDMEIKSIKVPEPGPVKLTIEPPGSDKKQERYMPPDDISAGGSAGGSAGG [r7_342_TrROS] | 0.0711 ± 0.23 | < -1
SAGGSAGGSIKVPKNSKVTVLYEKGGKKIEVSGIVDPKTGKILETDSLENLPDAKIVEIKVEDSAGGSAGGS [r12_6_TrMRF] | -0.742 ± 0.15 | < -1
SAGGSAGGSAGKVKVKVESNPDGTLIIAEEFEDFVVIVELKVDDDGIHFHPHPVVLSKELSAGGSAGGSAGG [r17_72_TrMRF] | 0.0484 ± 0.1 | -0.695 ± 0.38
SAGGSAKPVEVELPDGIEIYYPKDRMYIEINLPNGRPIKIPFEFDDPNDPERALDKARDLVKKLPWSAGGSA [r15_748_TrROS] | -0.577 ± 0.41 | < -1
SAGGSAGGSMTETVVLPYPLPPGVPFHIELPDGSKSVSADPETGTLTVLVKKGTEEAVKEALASAGGSAGGS [r12_476_JUSTAS] | -0.508 ± 0.12 | -0.989 ± 0.27
SAGGSAGGSAGGMKVEVVDITGPPDLSPDATTTTKHPNGVTSTTTMTDPATRTSTIYTPESAGGSAGGSAGG [r11_362_JUSTAS] | -0.899 ± 0.83 | < -1
SAGGSAMPKPKVEILKVEKTEDGTVKVPVKVEVTFEDGSKETVPATVTFEVEEGKPLGPEALKEAISAGGSA [r15_836_TrMRF] | -0.377 ± 0.11 | < -1
SAGGSAGGSAGGAMREVPIVLPFSPEMSEEEARALIEEELKRKGDPIAKLVIDKKSPALLSAGGSAGGSAGG [r7_703_JUSTAS] | -0.687 ± 0.45 | < -1
SAGGSITLEIELPNGAKITVTIEYDEETGTVTIEAEITLPNGTVIRIKATINKDGTITIEKIEVFKPSAGGS [r16_213_TrROS_Hall] | 4.82 ± 0.69 | > 6
SAGGSAGGSAGGPIKVKADKVTVEKRRNPENGKEYVELTVPGPGGTRTGRFPAEDLDKISAGGSAGGSAGGS [r10_447_TrROS] | -0.654 ± 0.21 | < -1
SAGGKVREIDFPMDPGELRDAIDELKREGYMVMIEMPNGQERTIDPNLEDLPPGMPFEIYVMPPKDGSAGGS [r16_31_TrROS] | -0.212 ± 0.33 | < -1
SAGGSAMTLEELKGMPIRSWWPGGQKIEMPIKKIDLNDPMFEIKFGGEPIKIPFNHPMRIEIQPPKSAGGSA [r15_355_TrROS] | 0.0637 ± 0.052 | -0.64 ± 0.27
SAGGSAGGSDWFPIRVEDIEYERDPADGRDSVTIEAQFPGKPHTFTIPPNAPIKPGDELWIPFSAGGSAGGS [r20_49_TrROS] | -1.9 ± 0.8 | < -1
SAGGSAGGSPPFTITFIDENGKGVKKINLPFDPKKPSVLPLSEEEIKALKEELGPEAKSITLSSAGGSAGGS [r12_514_JUSTAS] | -0.658 ± 0.16 | < -1
SAGGSLVTELIENNPEFQALLESGTTLKVTFPGGLSGEIEVKNKSPEEIEKAILARNPGPVEIEITGSAGGS [r16_655_JUSTAS] | 0.384 ± 0.11 | -0.192 ± 0.2
SAGGPKEIIKEIAEKYGITEIMPWDDMKNMPPENPNKIHIWPDPEGHYMVMIRAPNGNKKSIEFPIESAGGS [r16_686_TrROS] | -1.02 ± 0.3 | < -1
SMNVKPFSSTISNPAVTVTTPITQPSSGEGTATLTIHRPESVTTTTHPVTDLQALIDSHAAGGVSLTGTSSA [r9_384_JUSTAS] | -0.377 ± 0.095 | < -1
SAGGSAGGSAGGLADLLKGKTFTVTFPEGDKPYPATFEPTADDTVRVGFPDGDSYPVPAAYQSAGGSAGGSA [r18_169_TrMRF] | -0.466 ± 0.2 | < -1
SAGGSAGGSTTSTIKVTLENPSGSPLKLETATITTDPVAGTSTLTVTVPGTGETKFVGTNPNLSSAGGSAGG [r6_330_JUSTAS] | 0.713 ± 0.052 | 0.107 ± 0.061
SAGGSAGGSAGGVRIRPPNGEWIRIDNAPDDEDIKDKLKKHPNVKPEIDPDTNEAWIPVSAGGSAGGSAGGS [r10_792_TrROS] | -1.09 ± 0.42 | < -1
SAGGSAGGSAGTIVTPTATYRIEKLPDKRVRIVVGDKEYEVRVGEPFYLPGGVPFEVLDESAGGSAGGSAGG [r11_147_TrMRF] | 0.35 ± 0.13 | -0.299 ± 0.19
SAGGMPIKPKVELEPLEDAYLVRVRFEAPDRPIEIRRAFASFPDAVREAEEIARFLEEAEIPSPEGGSAGGS [r16_24_TrMRF] | -0.682 ± 0.66 | < -1
SAMEVTVTPLPDGTTRVTLPDGVEITHPAPGTGEPVLVEVTEVPGTGTYRITIRSPAGGEELRELLVPVSAG [r14_975_JUSTAS] | 0.986 ± 0.03 | 0.443 ± 0.091
